Tests used:
NagR-DBD [1] = molecular target: T1, NagR-DBD (Bacillus subtilis, UniProt O34817 1-75); experiment: SPR; SPR: HBS-EP pH 7.4, 25 C, biotinylated DNA on SA chip; DNA for EMSA/SEC annealed in 20 mM Tris-HCl pH 7.5, 150 mM NaCl; crystal 4WWC: 0.1 M Bis-Tris pH 6.5, 25% PEG 3500, 292 K; details: protein: recombinant; tags: N-terminal His6 with thrombin site (pET15b); chain copies: 2; label: 5'-biotin on strand 1; blunt; one T:C mismatch as printed at position 3 of strand 1 (possible misprint)
T1 sequence: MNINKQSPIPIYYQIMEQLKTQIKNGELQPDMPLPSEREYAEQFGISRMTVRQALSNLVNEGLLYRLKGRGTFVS

NagR (YvoA) [2] = molecular target: T2, NagR (YvoA) (Bacillus subtilis, UniProt O34817 1-243); experiment: SPR; 1:1 steady state; SPR: HBS-EP pH 7.4, 25 C, biotinylated DNA on SA chip; DNA for EMSA/SEC annealed in 20 mM Tris-HCl pH 7.5, 150 mM NaCl; crystal 4WWC: 0.1 M Bis-Tris pH 6.5, 25% PEG 3500, 292 K; details: protein: recombinant, tags: pET15b template, chain copies: 2, label: 5'-biotin on strand 1, blunt
T2 sequence: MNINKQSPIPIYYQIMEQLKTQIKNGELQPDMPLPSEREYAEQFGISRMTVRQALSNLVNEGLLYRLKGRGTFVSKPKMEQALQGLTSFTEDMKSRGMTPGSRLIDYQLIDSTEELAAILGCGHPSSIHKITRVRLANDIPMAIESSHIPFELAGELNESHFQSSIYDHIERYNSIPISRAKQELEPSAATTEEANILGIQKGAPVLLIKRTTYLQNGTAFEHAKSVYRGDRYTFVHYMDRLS

[3] = molecular target: the molecule itself; experiment: crystal structure; full-length NagR co-crystallised with 10 mM GlcN-6-P or GlcNAc-6-P; sitting drop, 292 K; isomorphous crystals, space group R32:H; one homodimer in the asymmetric unit
NagR-DBD [4] = molecular target: T1, NagR-DBD; experiment: EMSA; 2 uM DNA; higher oligomers by bridging of fragments; SPR: HBS-EP pH 7.4, 25 C, biotinylated DNA on SA chip; DNA for EMSA/SEC annealed in 20 mM Tris-HCl pH 7.5, 150 mM NaCl; crystal 4WWC: 0.1 M Bis-Tris pH 6.5, 25% PEG 3500, 292 K; details: protein: recombinant; tags: N-terminal His6 with thrombin site (pET15b); chain copies: 2; 3' overhang 1 nt (T) on each strand; self-complementary, 2 copies
NagR (YvoA) [5] = molecular target: T2, NagR (YvoA); experiment: X-ray crystallography; effector-free; 2.9 A; SPR: HBS-EP pH 7.4, 25 C, biotinylated DNA on SA chip; DNA for EMSA/SEC annealed in 20 mM Tris-HCl pH 7.5, 150 mM NaCl; crystal 4WWC: 0.1 M Bis-Tris pH 6.5, 25% PEG 3500, 292 K; details: protein: recombinant; tags: pET15b template; chain copies: 2; 3' overhang 1 nt (G) on each strand; self-complementary, 2 copies
NagR (YvoA) [6] = molecular target: T2, NagR (YvoA); experiment: SPR; kinetic 1:1 fit; SPR: HBS-EP pH 7.4, 25 C, biotinylated DNA on SA chip; DNA for EMSA/SEC annealed in 20 mM Tris-HCl pH 7.5, 150 mM NaCl; crystal 4WWC: 0.1 M Bis-Tris pH 6.5, 25% PEG 3500, 292 K; details: protein: recombinant; tags: pET15b template; chain copies: 2; label: 5'-biotin on strand 1; blunt
NagR-DBD [7] = molecular target: T1, NagR-DBD; experiment: SPR; KD1 of two-step model, steady state; SPR: HBS-EP pH 7.4, 25 C, biotinylated DNA on SA chip; DNA for EMSA/SEC annealed in 20 mM Tris-HCl pH 7.5, 150 mM NaCl; crystal 4WWC: 0.1 M Bis-Tris pH 6.5, 25% PEG 3500, 292 K; details: protein: recombinant; tags: N-terminal His6 with thrombin site (pET15b); chain copies: 2; label: 5'-biotin on strand 1; blunt
NagR-DBD [8] = molecular target: T1, NagR-DBD; experiment: SEC; 3 uM DNA; SPR: HBS-EP pH 7.4, 25 C, biotinylated DNA on SA chip; DNA for EMSA/SEC annealed in 20 mM Tris-HCl pH 7.5, 150 mM NaCl; crystal 4WWC: 0.1 M Bis-Tris pH 6.5, 25% PEG 3500, 292 K; details: protein: recombinant; tags: N-terminal His6 with thrombin site (pET15b); chain copies: 2; 3' overhang 1 nt (T) on each strand; self-complementary, 2 copies
NagR (YvoA) [9] = molecular target: T2, NagR (YvoA); experiment: as above; details: protein: recombinant; tags: pET15b template; chain copies: 2; 3' overhang 1 nt (T) on each strand; self-complementary, 2 copies
NagR-DBD [10] = molecular target: T1, NagR-DBD; experiment: SPR; 1:1 steady state; SPR: HBS-EP pH 7.4, 25 C, biotinylated DNA on SA chip; DNA for EMSA/SEC annealed in 20 mM Tris-HCl pH 7.5, 150 mM NaCl; crystal 4WWC: 0.1 M Bis-Tris pH 6.5, 25% PEG 3500, 292 K; details: protein: recombinant; tags: N-terminal His6 with thrombin site (pET15b); chain copies: 2; label: 5'-biotin on strand 1; blunt

B1: 26mer control dsDNA (random design) (dsDNA)
DNA 1: AATCATTTATGGCATAGGCAACAAGT
DNA 2: ACTTGTTGCCTATGCCATAAATGCTT
With B1 the binding result (NagR-DBD [1]) was “no binding” and the Kd (NagR (YvoA) [2]; one T:C mismatch as printed at position 3 of strand 1 (possible misprint)) was 306 ± 6.3 nM.

B2: NagR (full-length, wild-type) from Bacillus subtilis (natural protein, UniProt O34817 1-243, looked up)
chain: MNINKQSPIPIYYQIMEQLKTQIKNGELQPDMPLPSEREYAEQFGISRMTVRQALSNLVNEGLLYRLKGRGTFVSKPKMEQALQGLTSFTEDMKSRGMTPGSRLIDYQLIDSTEELAAILGCGHPSSIHKITRVRLANDIPMAIESSHIPFELAGELNESHFQSSIYDHIERYNSIPISRAKQELEPSAATTEEANILGIQKGAPVLLIKRTTYLQNGTAFEHAKSVYRGDRYTFVHYMDRLS
notes: NagR (formerly YvoA), GntR/HutC family transcription repressor of Bacillus subtilis, full length; The nagR gene stood in a pET15b vector; also called YvoA; full-length NagR
With B2 the “stoichiometry N” value [3] was 2.

B3: 15mer palindromic dsDNA (shifted motif) (dsDNA)
DNA 1: GACCACATGTGGTCT
DNA 2: GACCACATGTGGTCT
B3: binds (NagR-DBD [4]).

B4: 19mer palindromic dsDNA (dsDNA)
DNA 1: CAGTGGTCTAGACCACTGG
DNA 2: CAGTGGTCTAGACCACTGG
B4: binds (NagR (YvoA) [5]).

B5: 26mer palindromic dsDNA (dsDNA)
DNA 1: GCTCAGGTGGTCTAGACCACTAGTCT
DNA 2: AGACTAGTGGTCTAGACCACCTGAGC
For B5, the Kd (NagR (YvoA) [6]) was 0.0279 ± 0.0067 nM and the Kd (NagR-DBD [7]) was 14.5 ± 3.3 nM.

B6: 26mer control dsDNA (derived from nagA gene) (dsDNA)
DNA 1: GCAGAGAGTCTTCTTATTAAAGACAT
DNA 2: ATGTCTTTAATAAGAAGACTCTCTGC
With B6 the Kd (NagR (YvoA) [2]) was 127 ± 4.2 nM.

B7: 15mer palindromic dsDNA (dsDNA)
DNA 1: GTGGTCTAGACCACT
DNA 2: GTGGTCTAGACCACT
B7: binds (NagR-DBD [8]); binds (NagR (YvoA) [9]).

B8: 26mer native nagAB dsDNA (dsDNA)
DNA 1: GCTCAGCTGGTCTAGATCACTAGTCT
DNA 2: AGACTAGTGATCTAGACCAGCTGAGC
For B8, the Kd (NagR (YvoA) [6]) was 0.0192 ± 0.0151 nM and the Kd (NagR-DBD [10]) was 122 ± 7.6 nM.

From paper PMC4333415, “Structural insight into operator dre-sites recognition and effector binding in the GntR/HutC transcription regulator NagR” (Nucleic Acids Research, 2015)
